Key:
[1] = molecular target: two-zinc finger construct containing SD0, MBP–Avi–His fusion, biotinylated (UniProt Q13422); assay: FRET; pomalidomide titration (compound EC50 of ternary complex formation)
[2] = molecular target: two-zinc finger construct containing SD0, MBP–Avi–His fusion, biotinylated (UniProt Q13422); assay: FRET; saturating pomalidomide; conditions: complex
[3] = molecular target: DDB1^ΔBPB•CRBN complex (tags cleaved, for BLI) (human) (UniProt Q96SW2); assay: BLI; pomalidomide
Sequence of DDB1^ΔBPB•CRBN complex (tags cleaved, for BLI) (human) (Q96SW2 whole entry, stated change not applied, chain 1 of 2): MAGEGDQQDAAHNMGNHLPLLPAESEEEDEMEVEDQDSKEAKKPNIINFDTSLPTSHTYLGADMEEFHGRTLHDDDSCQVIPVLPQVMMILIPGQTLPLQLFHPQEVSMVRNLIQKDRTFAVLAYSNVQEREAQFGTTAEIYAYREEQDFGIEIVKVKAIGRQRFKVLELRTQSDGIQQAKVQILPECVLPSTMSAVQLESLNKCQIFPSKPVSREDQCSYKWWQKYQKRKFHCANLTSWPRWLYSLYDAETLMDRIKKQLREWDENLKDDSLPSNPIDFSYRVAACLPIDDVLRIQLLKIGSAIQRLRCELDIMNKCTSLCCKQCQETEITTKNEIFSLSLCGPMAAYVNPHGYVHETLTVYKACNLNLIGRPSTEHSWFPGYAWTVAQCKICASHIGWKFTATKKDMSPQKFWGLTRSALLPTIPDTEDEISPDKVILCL
Sequence of DDB1^ΔBPB•CRBN complex (tags cleaved, for BLI) (human) (Q16531 other isoform, or with tags, fused parts or gaps mutant, chain 2 of 2, further chain): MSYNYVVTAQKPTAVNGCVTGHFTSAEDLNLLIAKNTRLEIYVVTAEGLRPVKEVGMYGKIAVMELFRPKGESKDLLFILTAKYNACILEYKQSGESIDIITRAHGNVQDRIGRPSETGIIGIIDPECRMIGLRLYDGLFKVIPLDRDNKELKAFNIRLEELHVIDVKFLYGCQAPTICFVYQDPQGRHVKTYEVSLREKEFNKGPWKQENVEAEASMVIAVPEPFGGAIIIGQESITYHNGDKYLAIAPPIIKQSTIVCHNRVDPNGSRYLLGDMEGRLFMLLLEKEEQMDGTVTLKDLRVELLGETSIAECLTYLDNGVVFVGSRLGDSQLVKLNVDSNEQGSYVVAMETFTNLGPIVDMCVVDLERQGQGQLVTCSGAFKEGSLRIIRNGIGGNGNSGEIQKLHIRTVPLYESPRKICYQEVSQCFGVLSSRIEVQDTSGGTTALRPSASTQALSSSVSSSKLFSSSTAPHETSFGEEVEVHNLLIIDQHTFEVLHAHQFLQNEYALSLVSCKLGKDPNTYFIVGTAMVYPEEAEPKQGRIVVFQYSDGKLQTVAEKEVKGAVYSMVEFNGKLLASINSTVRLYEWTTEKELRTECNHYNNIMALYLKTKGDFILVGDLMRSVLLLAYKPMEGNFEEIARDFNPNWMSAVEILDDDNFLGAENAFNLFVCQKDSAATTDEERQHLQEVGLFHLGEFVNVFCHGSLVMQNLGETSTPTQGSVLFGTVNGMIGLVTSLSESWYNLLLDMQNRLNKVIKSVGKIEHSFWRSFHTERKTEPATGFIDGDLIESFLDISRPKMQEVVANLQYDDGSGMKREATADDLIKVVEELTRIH

Sequence of two-zinc finger construct containing SD0, MBP–Avi–His fusion, biotinylated (Q13422 other isoform, or with tags, fused parts or gaps): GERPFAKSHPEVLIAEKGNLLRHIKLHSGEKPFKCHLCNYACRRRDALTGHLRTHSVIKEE

Row | EC50 [1] [nM] | Kd [2] [nM] | Kd [3] [nM] | koff [3] [s⁻¹] | Substance
1 | 314 | 212 |  |  | CRBN–eGFP•DDB1^ΔBPB (from UniProt Q96SW2 1-442; Q16531 1-395; Q16531 706-1140)
2 |  |  | 245 | 0.071 | two-zinc finger construct containing SD0, MBP–Avi–His fusion, biotinylated (from UniProt Q13422 141-145; Q96JP5 450-460; Q13422 157-243)
